According to the nanobody polyreactivity screen of Harvey et al. (2022):

Assay: yeast display, Sf9 membrane polyspecificity reagent, FACS + sequencing; frameworks hold sequencing errors
Method in brief: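 After 36–48 hours of galactose induction, yeast (Saccharomyces cerevisiae BJ5465) displaying a synthetic nanobody library were stained at 4 °C for 1 hour with 10% biotinylated, detergent-solubilized Sf9 membrane reagent. Streptavidin microbeads enriched the stained cells before FACS sorting into low and high (top ~1%) gates on anti-HA and streptavidin fluorescence. Each clone's polyreactivity label reflects its gate of origin.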

Sequence	polyreactivity (PSR sort gate)
QVQLVESGGGLVQAGGSLRLSCAASGRIFSAYTMGWYRQAPGKERELVAAITWSGGTTYYADSVKGRFTISRDNAKNTVYLQINSLKPEDTAVYYCAAESSWYVLYGSYYRSGLEYWGQGTLVTVSS	low polyreactivity
QVQLVESGGGLVQAGGTLRLSCAASGFIFGINAMGWYRQAPGQERELVAAIATGDRTNYADSVTGRFTISRDNAKNTVYLQMNSLKPEHTAVYYCAAGVHWDRGDYWGQGTQVTVST	low polyreactivity
QVQLVESGGGLVQAGGSLRLSCAATGRIFYSNAMGWYRQAPGKERELVAVIRRTGSTYYADSVKGRFTISRDNAKHTVYLQMNSLKPEDTAVYYCATRIPYGRGGNRYDYWGQGTQVTVSS	low polyreactivity
QVQLVESGGGLVQAGGSLRLSCAASGNTFSVYAMGWYRQAPGKERELVAGITTSGGSTYYADSVKGRFTISRDNAKNTVYLQMNSLKPEDTAVYYCATDISTSYYYQYSSFYQYDSWGQGTQVTVSS	low polyreactivity
QVQLQESGGGLVQAGGSLRLSCAASGNIVDADIMGWYRQAPGKEREIVASITDGGSTNYADSLKGRFTISRDHAKNTVYQQMNRLLPEDTAVYYCAAIAYPDIPTYFDYDSDYFYWGQGTQETVSS	high polyreactivity
QVQLVESGGGLVQAGGSLRLTCAASGRTFQYYAMGWYRQAPGKERELVAAISQDGGSTYYADSVKGRFTISRDNSKNSVYLQMNSLKPEDTAVYYCAARVDEYAYYALDDYWGQGTQVTVSS	low polyreactivity
QVQLVESGGGLVQAGGSLRLSCAASGSIIDYNAMGWYRQAPGKERELVAAIDWSGSSTYYADSVKGRFTISRDNAKNTVYLQMNSLKPEDTAVYYCNALAYYGMDYWGQGTQVTVSS	low polyreactivity
QVQLVESGGGLVQAGGSLRLSCAASGSTFGWYAMGGYRQAPGKERELVAAISSGGSTYYADSVKGRFTISRDHAKYTVYLQMNSLKPEDTAVYYCAADIGYYYRYDYWGQGTQVTVSS	low polyreactivity
QVQLVESGGGLVQAGGSLRLSCAASGLIFSSYPKGWYRQAPGKEWVLVAAITRTGGDTYYADSVKGRFTISRDNAQNSFYLQMNSLKPEDTAVYYCSSSGPQYYSRNFDYWGQGTQVTVSS	low polyreactivity
QVQLLESGGGLVQAGGSLRLSCAATRRIFEYNGMGWYRQAPGKDSELVAAIEWNGSPTYADSVKGRFTIARDNAKNTVYLLMNSLKPEDTSVYYCAKAYPGKAPKYDYWGQGTQVTVSS	low polyreactivity
QVQLVASGGGLVQAGGSLRLTCAASGSIFYAYAMGWSRQAPGKERELVASINSGGNTYYADSVKGRFTISRDNAKNTDYLQMNSLKAEATAVYYCAVDSKDNNDHWGQGTQVTVSS	low polyreactivity
QVQHVESGGGLVQAGGSLRLSCAASGYTYDPNAMGWYRQAPGKERELVAAISRIGGSTYYADSVKGRFRISRDNAKNTVYLQMNSLKREDTAVYYCAQEYYDGYFPTFDYDYWGQGTQVTVSS	low polyreactivity
QVQLVESGGGLVQAGGSLRLSCAASGRTYHQYAMGWYRQAPGKERELVARITSGGRTNYADSVKGRFTISRDNAKNTVYLHMNSLKPEDTAVYYCPAASSYYFYISSKLDYWGQGTQVTVSS	high polyreactivity
QVQLVESGGGLVQAGGSLRLSCAASGSTFAPNAMGWYRQAPGKEKEIVSGITWGDSTYYADSVKGRFTISRDNAKNTVYLQMNSLKPEDTAVYYCAVRWVWNPWGIQGDWAVDYDYWGQGTQVTVSS	low polyreactivity
QVQLVESGGGLVQAGGSLRLSCAASGSTFRHYAMGWYRQAPGKERELVAAISIRGGSTNYADSVKGRFTISRDNAKNTVYLQMNSLKPEDTAVYYCNACRLRYIFKSYDYWGQGTQVTVSS	high polyreactivity
QVQLVESGGGLVQAGGSRRLSCAASGLIFVHYTMGWYRQATGKERELVAAITSSGGSTYYAYSVKGRFTISRDNAKNTVYLEMNSMKPEDTAVYYCATKSYSPTRTRFYYWGQGTQVTVSS	high polyreactivity
QVQLVESGGGLVQAGGSLRLSCAASGFTFYRYAMGWYRQAPGKERELVAAINWSGVSTYYADSVKGRFTISRDNAKNTVYLQMNSLKPEDTAVYYCAADTYAGYNGNYWGQGTQVTVSS	high polyreactivity
QVQLVESGGGLVQAGGSLRLSCAASGSIFYRNVMGWYRQAPGKERELVATISRGGTSNYADSVKGRFTISRDNAKNTVYLQMNSLKPEDTAVYYCAAPIGDVYVGKGYDSWGQGTQVTVSS	low polyreactivity
QVQLVESGGGLVHAGGSLRLSCAASGFTFGGYAKGWYIQAPGKERELVAAISQSGGRTYYADSVKGRFTISRDHAKNTFYLQMNSLKPEDTAVYYCAKPSTTYYQRGDYWGQGTQVTVSS	high polyreactivity
QVQLVESGGGLVQAGGSLRLSCAASGRIFSGYAMGWYRQAPGKERELVAAITWNGVSTYYADSVKGRFTISRDNAKNTVYLQMNSLKPEDTAVYYCNAEVYSDPYNDHDYWGQGTQVTVSS	low polyreactivity
QVQLVESGGGLVQAGGSLRLSCAASGSTFRSYAMGWYRQAPGKERELVAAISSSGSRTYYADSVKGRFTISRDNAKNTVYLQMNSLKPEDTAVYYCAADYYYNTKLDYWGQGTQVTVSS	high polyreactivity
QVQLVESGGGLDQAGGSLRLSCAASGIIFKYYAMGWYRQAPGKERELVAAINYSGGRTYYADSVKGRFTISRDNAKNTVYLQMNSLKPEDTAVYYCAKVPAYADRGKFDYWGQGTQVTVSS	high polyreactivity

Sequence	polyreactivity (PSR sort gate)
QVQLLESGGGLVQAGGSIRLSCSASGRTFARYVMGWYRQAPGKERELVASISNSGGSTYYSDSVKGRFTISRDNAQNTVYLQMNSLKPEDTEVYYCARRYYYYTTYRYDYWGQGTQVTVSS	high polyreactivity
QVQLVESGGGLVQAGGSLRLSCAASGYTFYKYAMGWYRQAPGKEREFVADITQSGGSTYYADSVKGRFTISRDNAKNTVYLQMNSLKPEDTAVYYCNAAYSYRPDPKGYDYWGQGTQVTVSS	low polyreactivity
QVQLVESGGGLVQAGGSLRLSCAASGSIFASNTMGWYRQAPGKERELVAAISFRGGRTYYADSVKGRFTISRDNAKNTVYLQMNSLKPEDTAVYYCNAAYGRYPRGGYWGQGTQVTVSS	high polyreactivity
QVQLVETGGGLVQAGGSLRLSCAASGITFWYYAMGCDRQAPGKERELVAVISRGGSTYYADSVKGRFTISRDNAKNTVYLQMNSLKPEDTAVYYCAARPRWYTYNRQEYDYWGQGTQVTLSS	high polyreactivity
QVQLVESGGGLVQAGGSLRLSCAASGRTLHYYAMGWYRQAPGKERELVARINWSGGSTYYADSVKGRFTISRDNAKNTVYLQMNCLKPEDTAVYYCARTSYYWSSFDYWGQGTQVTVSS	high polyreactivity
QVQLVESGGGLVQAGGSLRLSCAASGRTFSDYTMGWYRQAPGKERELFAAISGSVVNTYYADSVKGRFTISRDNAKNTVYLQMNSLKPEDTAVYYCAKDRIFYHYALYRWRVESYYWGQGTQVTVSS	low polyreactivity
QVQLVDSGGALVQAGGSLRLSCAASGPTFYTKTMGSYRQAPGKERELVAVISSGGGSTYYSDSVKGRFTISRDNAKNTVYLQMNSLKPEDTAVYYCAKRRGGQGNYWGQGPQVTVSS	high polyreactivity
QDQLVETGGGLVQAGGSLRLSCAASGSTFWGNAMGWYRQAPGKESELVAAISTSDTSTYYADSVKGRFTISRDNAKNTVYLQMNSLKPEDTAVYYCAAEWYYGEKYDYWGQGTQVTVSS	low polyreactivity
QVQLVESGGGLVQAGGSLRLSCAASGNTFGFYAMGWYRQAPGKERELVAGITSGDSTYYADSVKGRFTISRDNEKNTVYLQMNSLKPVDTAVYYCNADFTDSYWSRYDYWGQGTQVTVSS	low polyreactivity
QVQIVESGGGLVQAGGSLRLSCAASGSTFPTYAMGRYRQAPGKERELVAAITSGSGTNTYYADSVKGRFTISRDNAKNTVYLQMNSLKPEDTAVYYCAKSFRKKYGWGQGTQVTVSS	high polyreactivity
QVQLVESGGGLVQAGGSLRLSCAASGRIFGGYTMGWSRPAPGKERELVAAITGSGGRTYYADSVKGRFTISRDNAKNTVYLQMNSLQPEDTAVYYCNTVYRYLYSWGQGTQVTVSS	high polyreactivity
QVQLVESGGGLVQAGGSLRLSCAASGRTFYRYSMGWYRQAPGKERELVAGISTRGGSTYYADSVKGRFTISRDNAKNTVYLQMNSLKPEDTAVYYCAAAPLAFRYDYWGQGTHVTVSS	high polyreactivity
QVQLVESGGGLVQAGGSLRLSCAASGFIFYDYAMGWYRQAPGKERELVAAISSGGSTNYADSVKGRFTISRDNAKNSVYLQMNSLKPEDTAVYYCAADDRSYATWKRDYDYWGQGTQVTVSS	low polyreactivity
QDQLVESGGGLVQAGGSLRLSCAASGFTFVYNAMGWYRQAPGKERELVAAITSGGNTYYADSVKGRFTISRDNAKNTVYLQMNSLKPEDTAVYYCAADRFTVRMDYWGQGTQVTLSS	high polyreactivity
QFQLVESGGGLVQAGGSLRLSCAASGRIFGPYAMGWYRQAPGKERELVASISGGGSTNYADSVKGRFTISRDNAKNTVYLQMNSLKPEDTAVYYCAADVYYQYWGWWPYDYWGQGTQVTESS	low polyreactivity
QVQLVESGGGLVQAGGSLRLSCAASGSTFQIYTMGWYRQAPGKERELVAAITNGGGSTYYADSVKGRFTISRDNAKNTVYLQMNSLKPEDTAVYYCAAEQRYPLIILYDYWGQGTQVTVSS	low polyreactivity
QVQLVESGGGLVQAGGSLRLSCAASGSNFGPYAMGWSRPAPGKEMELVASITWTGGRTYYADSVKGRFTISLDNAKNTVYLQMNSLKPEDTAVYYCAADYSPSTWYLYYTLYYYWGQGTQVTVSS	low polyreactivity
QVQLVESGGGLVQAGRSLRLNCAASGLTFYKYAMGWYRQAPGKERELVAAISYRGGSTYYADSVKGRFTISRDNAKNTVSLQLNSLKPEVTAVYYCAAGYPYGGDYWGQGTQVTVSS	high polyreactivity
QVQLEESGGGLVQAGGSLRLSCAASGSTFWVYVMGWYRQAPGKERELVATIRWSTSSTYADSVKGRFTISRDNAKNTVYLQMNILKPEDTAVYYCNTYPRGNWGNFVEQDYDYWGQGTQVTVSS	low polyreactivity
QVQLVESGGGLVQAGGSLRLSCAASGSTFRYNAMGWYRQAPGKERELVAAISSGSSTNYADSVKGRFTISRDNEKNTVYFQMNSLKPVDTAVYYCAAQPGYYDDFYYWGQGTQVTVSA	low polyreactivity
QVQLVESGGGLVQAGGSLRLSCAASGIIFYRYAMGWYRQAPGKERELVAAINTSGGRTYYADSVKGRFTISRDNAKNTVYLQMNSLKPEDTAVYYCAAYYSPVGFQYDYWGQGTQVTVSS	high polyreactivity
